B1: ACE2 variant antibody 3-12 (antibody, V domains shown)
VH: EVQLLESGGGLVQPGGSLRLSCAASGFTFRSHAMNWVRQAPGKGLEWVSAISGSGGSTNYADSVKGRFTISRDNSKNTLYLQMNSLRAEDTAVYYCARGLKFLEWLPSAFDIWGQGTLVTVSS
VL: DIQMTQSPSSLSASVGDRVTITCRTSQSINTYLNWYQQKPGKAPKLLIYGASNVQSGVPSRFSGSGSGTDFTLTISSLQPEDFATYYCQQSYRIPRTFGQGTKVEIK
B2: ACE2 variant antibody 3-13 (antibody, V domains shown)
VH: EVQLLESGGGLVQPGGSLRLSCAASGFTITNYAMSWVRQAPGKGLEWVSGISGSGAGTYYADSVKGRFTISRDNSKNTLYLQMNSLRAEDTAVYYCARHTWWKGAGFFDHWGQGTLVTVSS
VL: DIQMTQSPSSLSASVGDRVTITCRASQSIGRYLNWYQQKPGKAPKLLIYAASSLKSGVPSRFSGSGSGTDFTLTISSLQPEDFATYYCQQSYSLPRTFGQGTKVEIK
B3: 10-57 (VHH)
VHH: EVQLVESGGGLVQPGGSLRLSCAASGRTFSRYAMGWFRQAPGKEREFVASITKFGSTNYADSVKGRFTISADNSKNTAYLQMNSLKPEDTAVYYCAKERESRFLKWRKTDWGQGTLVTVSS
B4: 10-26 (VHH)
VHH: EVQLVESGGGLVQPGGSLRLSCAASGRTFSGFTMSSTWMGWFRQAPGKEREFVAGIITNGSTNYADSVKGRFTISADNSKNTAYLQMNSLKPEDTAVYYCARRVAYSSFWSGLRKHMDVWGQGTLVTVSS
B5: 9-8 (VHH)
VHH: EVQLVESGGGLVQPGGSLRLSCAASGRTFRRYPMGWFRQAPGKEREFVAAISRSGGSTYYADSVKGRFTISADNSKNTAYLQMNSLKPEDTAVYYCAAKRLRSFASGGSYDWGQGTLVTVSS
B6: 10-42 (VHH)
VHH: EVQLVESGGGLVQPGGSLRLSCAASGITIRTHAMGWFRQAPGKEREFVATISRSGGNTYYADSVKGRFTISADNSKNTAYLQMNSLKPEDTAVYYCTTAGVLRYFDWFRRPYWGQGTLVTVSS
B7: 10-31 (VHH)
VHH: EVQLVESGGGLVQPGGSLRLSCAASGRTFGSYGMGWFRQAPGKEREFVATISIGGRTYYADSVKGRFTISADNSKNTAYLQMNSLKPEDTAVYYCARGSGSGFMWYHGNNNYDRWRYWGQGTLVTVSS
B8: 10-50 (VHH)
VHH: EVQLVESGGGLVQPGGSLRLSCAASGRTLSTYNMGWFRQAPGKEREFVASISRFGRTNYADSVKGRFTISADNSKNTAYLQMNSLKPEDTAVYYCARRGKLSAAMHWFDPWGQGTLVTVSS
B9: 10-41 (VHH)
VHH: EVQLVESGGGLVQPGGSLRLSCAASGRNLRMYRMGWFRQAPGKEREFVALISRVGVTSYADSVKGRFTISADNSKNTAYLQMNSLKPEDTAVYYCARGTSFFNFWSGSLGRVGFDSWGQGTLVTVSS
B10: 10-40 (VHH)
VHH: EVQLVESGGGLVQPGGSLRLSCAASGRTFSTYTMGWFRQAPGKEREFVARIWRSGGNTYYADSVKGRFTISADNSKNTAYLQMNSLKPEDTAVYYCARGVRGVFRAYFDHWGQGTLVTVSS
B11: 10-48 (VHH)
VHH: EVQLVESGGGLVQPGGSLRLSCAASGRTFRRYAMGWFRQAPGKEREFVAAINRSGSTEYADSVKGRFTISADNSKNTAYLQMNSLKPEDTAVYYCARQHQDFWTGYYTVWGQGTLVTVSS
B12: 10-45 (VHH)
VHH: EVQLVESGGGLVQPGGSLRLSCAASGRTFSWYPMGWFRQAPGKEREFVASISWGGARTYYADSVKGRFTISADNSKNTAYLQMNSLKPEDTAVYYCARSTGPRGSGRYRAHWFDSWGQGTLVTVSS
B13: 10-28 (VHH)
VHH: EVQLVESGGGLVQPGGSLRLSCAASGSIFSIGMGWFRQAPGKEREFVARIWWRSGATYYADSVKGRFTISADNSKNTAYLQMNSLKPEDTAVYYCAAISIFGRLKWGQGTLVTVSS
B14: 10-47 (VHH)
VHH: EVQLVESGGGLVQPGGSLRLSCAASGRPLRRYVMGWFRQAPGKEREFVAAITNGGSTKYADSVKGRFTISADNSKNTAYLQMNSLKPEDTAVYYCARGTPWRLLWFGTLGPPPAFDYWGQGTLVTVSS
B15: 10-54 (VHH)
VHH: EVQLVESGGGLVQPGGSLRLSCAASGRTFSSARMGWFRQAPGKEREFVAGINMISSTKYADSVKGRFTISADNSKNTAYLQMNSLKPEDTAVYYCAHFRRFLPRGYVDYWGQGTLVTVSS
B16: 10-18 (VHH)
VHH: EVQLVESGGGLVQPGGSLRLSCAASGRMYNSYSMGWFRQAPGKEREFVARISPGGTFYADSVKGRFTISADNSKNTAYLQMNSLKPEDTAVYYCTTSARSGWFWRYFDSWGQGTLVTVSS
B17: 10-22 (VHH)
VHH: EVQLVESGGGLVQPGGSLRLSCAASGRTYYAMGWFRQAPGKEREFVGAIDWSGRRITYADSVKGRFTISADNSKNTAYLQMNSLKPEDTAVYYCARVRFSRLGGVIGRPIDSWGQGTLVTVSS
B18: 10-52 (VHH)
VHH: EVQLVESGGGLVQPGGSLRLSCAASGRFFSICSMGWFRQAPGKEREFVAGINWRSGGSTYYADSVKGRFTISADNSKNTAYLQMNSLKPEDTAVYYCARGSGWWEYWGQGTLVTVSS
B19: 10-13 (VHH)
VHH: EVQLVESGGGLVQPGGSLRLSCAASGGLTFSSNTMGWFRQAPGKEREFVASISSSGRTSYADSVKGRFTISADNSKNTAYLQMNSLKPEDTAVYYCARRVRRLWFRSYFDLWGQGTLVTVSS
B20: 9-1 (VHH)
VHH: EVQLVESGGGLVQPGGSLRLSCAASGRTFSRLAMGWFRQAPGKEREFVAAISRSGRSTSYADSVKGRFTISADNSKNTAYLQMNSLKPEDTAVYYCAARRSQILFTSRTDYEWGQGTLVTVSS
B21: variant 6-3 (Fc fusion)
VHH: EVQLVESGGGLVQPGGSLRLSCAASGFTFSPSWMGWFRQAPGKEREFVATINEYGGRNYADSVKGRFTISADNSKNTAYLQMNSLKPEDTAVYYCARVDRDFDYWGQGTLVTVSS
B22: variant 6-43 (Fc fusion)
VHH: EVQLVESGGGLVQPGGSLRLSCAASGRTFSSYAMMGWFRQAPGKEREFVASVNWDASQINYADSVKGRFTISADNSKNTAYLQMNSLKPEDTAVYYCTTLGAVYFDSSGYHDYFDYWGQGTLVTVSS
B23: variant 6-37 (Fc fusion)
VHH: EVQLVESGGGLVQPGGSLRLSCAASGHTFSTSWMGWFRQAPGKEREFVATINSLGGTNYADSVKGRFTISADNSKNTAYLQMNSLKPEDTAVYYCARVSSGDYGMDVWGQGTLVTVSS
B24: variant 6-63 (Fc fusion)
VHH: EVQLVESGGGLVQPGGSLRLSCAASGQTFNMGWFRQAPGKEREFVAAIGSGGSTSYADSVKGRFTISADNSKNTAYLQMNSLKPEDTAVYYCWRLGNDYFDYWGQGTLVTVSS
notes: also called VHH nanobody 6-63
B25: variant 6-81 (Fc fusion)
VHH: EVQLVESGGGLVQPGGSLRLSCAASGFIGNYHAMGWFRQAPGKEREFVAAVTWSGGTTNYADSVKGRFTISADNSKNTAYLQMNSLKPEDTAVYYCAREGYYYDSSGYPYYFDYWGQGTLVTVSS
B26: variant 6-46 (Fc fusion)
VHH: EVQLVESGGGLVQPGGSLRLSCAASGLTFSAMGWFRQAPGKEREFVALIRRDGSTIYADSVKGRFTISADNSKNTAYLQMNSLKPEDTAVYYCAALGILFGYDAFDIWGQGTLVTVSS
B27: variant 6-52 (Fc fusion)
VHH: EVQLVESGGGLVQPGGSLRLSCAASGDTYGSYWMGWFRQAPGKEREVVAAITSGGSTVYADSVKGRFTISADNSKNTAYLQMNSLKPEDTAVYYCARVDSRFDYWGQGTLVTVSS
B28: variant 6-5 (Fc fusion)
VHH: EVQLVESGGGLVQPGGSLRLSCAASGRTFTMGWFRQAPGKEREFVASTNSAGSTNYADSVNGRFTISADNSKNTAYLQMNSLKPEDTAVYYCTTVDQYFDYWGQGTLVTVSS
B29: variant 6-103 (Fc fusion)
VHH: EVQLVESGGGLVQPGGSLRLSCAASGRTSSPIAMGWFRQAPGKEREPVAVRWSDDYTYYADSVKGRFTISADNSKNTAYLQMNSLKPEDTAVYYCAKKLGGYYAFDIWGQGTLVTVSS
B30: variant 6-9 (Fc fusion)
VHH: EVQLVESGGGLVQPGGSLRLSCAASGFTFDYYAMGWFRQAPGKEREFVSAIDSEGRTSYADSVKGRFTISADNSKNTAYLQMNSLKPEDTAVYYCARWGPFDIWGQGTLVTVSS
B31: variant 6-2 (Fc fusion)
VHH: EVQLVESGGGLVQPGGSLRLSCAASGFTMSSSWMGWFRQAPGKEREFVTVISGVGTSYADSVKGRFTISADNSKNTAYLQMNSLKPEDTAVYYCARGPDSSGYGFDYWGQGTLVTVSS

target: T1, ACE2 (human, UniProt Q9BYF1 18-740); test: not given
T1 sequence (Q9BYF1 18-740 limits assumed): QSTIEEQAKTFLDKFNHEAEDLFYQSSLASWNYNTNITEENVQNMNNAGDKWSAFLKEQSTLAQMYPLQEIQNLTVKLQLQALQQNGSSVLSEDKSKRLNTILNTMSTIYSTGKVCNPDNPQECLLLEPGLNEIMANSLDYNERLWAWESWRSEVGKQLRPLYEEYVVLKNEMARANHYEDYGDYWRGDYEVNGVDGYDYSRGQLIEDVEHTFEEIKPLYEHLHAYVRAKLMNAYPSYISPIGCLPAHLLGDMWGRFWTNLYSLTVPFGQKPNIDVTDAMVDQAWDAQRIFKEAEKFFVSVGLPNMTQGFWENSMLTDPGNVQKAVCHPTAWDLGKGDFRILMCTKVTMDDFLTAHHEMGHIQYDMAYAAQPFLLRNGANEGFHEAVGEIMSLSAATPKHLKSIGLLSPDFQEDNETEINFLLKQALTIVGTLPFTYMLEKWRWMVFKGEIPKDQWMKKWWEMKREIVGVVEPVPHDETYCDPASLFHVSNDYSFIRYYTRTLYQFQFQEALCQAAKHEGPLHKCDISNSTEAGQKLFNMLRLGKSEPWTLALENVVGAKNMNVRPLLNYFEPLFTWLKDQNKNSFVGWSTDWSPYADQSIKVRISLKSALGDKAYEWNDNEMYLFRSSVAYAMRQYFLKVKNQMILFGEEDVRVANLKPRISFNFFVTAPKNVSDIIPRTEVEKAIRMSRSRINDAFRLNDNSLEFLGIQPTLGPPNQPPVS

Question: What does the source list for B1?
Answer: Kd: 420 nM; koff: 0.00649 s⁻¹; kon: 15500 M⁻¹ s⁻¹

Question: B2 was tested. Which Kd did it give?
Answer: Its Kd is 126 nM.

Question: And the koff?
Answer: Its koff is 0.0102 s⁻¹.

Question: What about the kon of the same binder?
Answer: The kon was 80900 M⁻¹ s⁻¹.

target: SARS-CoV-2 membrane protein on expressing cells (SARS-CoV-2, UniProt P0DTC5 1-222); test: not given

Question: How did the “MFI Ratio” value turn out when B3 was run?
Answer: The value was 1.79.

Question: For B4, which “MFI Ratio” value is on record?
Answer: Its value is 5.2.

Question: With B5 as the binder, how does the “MFI Ratio” value read?
Answer: The value was 3.76.

Question: How did the “MFI Ratio” value turn out when B6 was run?
Answer: The value was 1.74.

Question: How did the “MFI Ratio” value turn out when B7 was run?
Answer: The value was 1.66.

Question: How did the “MFI Ratio” value turn out when B8 was run?
Answer: Its value is 1.72.

Question: B9 was tested. Which “MFI Ratio” value did it give?
Answer: The value was 1.75.

Question: For B10, which “MFI Ratio” value is on record?
Answer: The value was 3.78.

Question: How did the “MFI Ratio” value turn out when B11 was run?
Answer: The value was 4.11.

Question: How did the “MFI Ratio” value turn out when B12 was run?
Answer: The value was 6.69.

Question: How did the “MFI Ratio” value turn out when B13 was run?
Answer: Its value is 2.06.

Question: How did the “MFI Ratio” value turn out when B14 was run?
Answer: Its value is 1.62.

Question: With B15 as the binder, how does the “MFI Ratio” value read?
Answer: The value was 1.78.

Question: For B16, which “MFI Ratio” value is on record?
Answer: The value was 8.06.

Question: B17 was tested. Which “MFI Ratio” value did it give?
Answer: Its value is 4.47.

Question: For B18, which “MFI Ratio” value is on record?
Answer: Its value is 4.11.

Question: For B19, which “MFI Ratio” value is on record?
Answer: Its value is 8.83.

Question: For B20, which “MFI Ratio” value is on record?
Answer: The value was 8.19.

target: T2, Acro SARS-CoV-2 (COVID-19) S1 protein (SARS-CoV-2, UniProt P0DTC2 16-685); test: SPR
T2 construct: also called SARS-CoV-2 S1

Question: For B21, which Kd is on record?
Answer: The Kd was 12.4 nM.

Question: B22 was tested. Which Kd did it give?
Answer: Its Kd is 17.9 nM.

Question: With B23 as the binder, how does the Kd read?
Answer: Its Kd is 22.5 nM.

Question: For B24, which Kd is on record?
Answer: The Kd was 21.8 nM.

Question: B25 was tested. Which Kd did it give?
Answer: Its Kd is 12.9 nM.

Question: B26 was tested. Which Kd did it give?
Answer: Its Kd is 18.1 nM.

Question: For B27, which Kd is on record?
Answer: Its Kd is 31.2 nM.

Question: With B28 as the binder, how does the Kd read?
Answer: Its Kd is 24.9 nM.

Question: B29 was tested. Which Kd did it give?
Answer: Its Kd is 23.6 nM.

Question: How did the Kd turn out when B30 was run?
Answer: The Kd was 18.5 nM.

Question: Which Kd does the source give for B31 here?
Answer: The Kd was 29.9 nM.

target: T1, ACE2; test: not given; remark: another data set of the same source

Question: How did the koff turn out when B1 was run?
Answer: Its koff is 0.00649 s⁻¹.

Question: What about the kon of the same binder?
Answer: Its kon is 15500 M⁻¹ s⁻¹.

Question: B2 was tested. Which koff did it give?
Answer: Its koff is 0.0102 s⁻¹.

Question: What about the kon of the same binder?
Answer: The kon was 80900 M⁻¹ s⁻¹.

From patent US20210355194A1 (TWIST BIOSCIENCE, published 2021)
